Numbering of substitutions follows the chain as printed. One block for each binder: values may come before it.
Key:
Test in all cases: BLI (Octet R8), construct captured on anti-human Fc sensor, CD47 in solution
[1] = biological target: T1, mouse CD47 (mouse, UniProt Q61735 19-140, limits assumed)
T1 construct: also called mouse CD47 protein
T1 sequence (looked up): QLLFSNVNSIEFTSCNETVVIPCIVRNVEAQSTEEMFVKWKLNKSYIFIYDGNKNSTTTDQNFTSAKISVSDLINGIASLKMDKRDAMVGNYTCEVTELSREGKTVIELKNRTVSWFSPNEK

[2] = biological target: T2, rat CD47 (rat, UniProt P97829 19-140, limits assumed)
T2 construct: also called rat CD47 protein
T2 sequence (looked up): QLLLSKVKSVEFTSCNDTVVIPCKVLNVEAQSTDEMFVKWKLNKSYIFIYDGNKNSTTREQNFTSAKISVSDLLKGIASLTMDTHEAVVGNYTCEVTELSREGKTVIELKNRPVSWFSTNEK

[3] = biological target: T3, rhCD47-his (human CD47) (human, UniProt Q08722 19-139)
T3 construct: Soluble analyte in the Octet assay; not shown: his tag
T3 sequence (Q08722 19-139 limits assumed): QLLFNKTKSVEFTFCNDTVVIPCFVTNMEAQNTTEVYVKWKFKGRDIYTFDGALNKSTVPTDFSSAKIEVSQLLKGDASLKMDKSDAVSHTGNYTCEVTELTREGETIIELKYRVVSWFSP

binding result [1]: binds
binding result [2]: binds
binding result [3]: binds
B1: Construct 50 (SIRPα fusion polypeptide SEQ ID NO: 10 construct without the YTE mutation, i.e. with the wild type IgG4 Fc domain) (Fc fusion)
chain: EEELQIIQPDKSVLVAAGETATLRCTITSLFPVGPIQWFRGAGPGRVLIYNQRQGPFPRVTTVSDTTKRNNMDFSIRIGNITPADAGTYYCIKFRKGSPDDVEFKSGAGTELSVRAKPSAAAPPCPPCPAPEFLGGPSVFLFPPKPKDTLMISRTPEVTCVVVDVSQEDPEVQFNWYVDGVEVHNAKTKPREEQFNSTYRVVSVLTVLHQDWLNGKEYKCKVSNKGLPSSIEKTISKAKGQPREPQVYTLPPSQEEMTKNQVSLTCLVKGFYPSDIAVEWESNGQPENNYKTTPPVLDSDGSFFLYSRLTVDKSRWQEGNVFSCSVMHEALHNHYTQKSLSLSLGK
notes: It is described as the same construct as Construct 67 without the YTE mutation

binding result [1]: binds
binding result [2]: binds
binding result [3]: binds
B2: Construct 67 (SIRPα fusion polypeptide of SEQ ID NO: 10, SIRPα domain of SEQ ID NO: 2 and IgG4 Fc domain with a YTE mutation) (Fc fusion)
chain: B1 chain with M151Y, S153T, T155E
